B1: 30G3 (antibody, V domains shown)
VH: QVQLQESGPGLVKPSETLSLTCTVSGGSISSYYWSWIRQPAGKGLEWIGRIYTSGSTYFNPSLKSRVTMSVDTSKNQFSLKLSSVTAADTAVYYCARGRELLDYWGQGTLVTVSS
VL: EVVLTQSPGTLSLSPGERATLSCRASQSFSSSYLAWYQQKPGQAPRLLIFGASSRATGIPDRFSGSGSGTDFTLTINRLEPEDFALYYCQQYGRSPLTFGGGTKVEIKR
notes: Fully human antibody from XenoMouse; also called anti-IL-21 receptor antibody 30G3; IL-21R mAb 30G3
B2: 29G8 (antibody, V domains shown)
VH: QVQLVESGGGVVQPGRSLRLSCAASGFTFSSYGMHWVRQAPGKGLEWVAVIWYDGSNKYYVDSVKGRFTISRDNSKNTLYLQMNSLRAEDTAVYYCARDRGYYDSGSYYMDYWGQGSLVTVSS
VL: DIQMTQSPSSVSASVGDRVTITCRASQGISTWLAWYQQKPGKAPKLLIYAASILQRGVPSRFSGSGSGTDFTLTISSLQPEDFTTYYCQQANSFPRTFGQGTKVEIKR
notes: Fully human antibody from XenoMouse, subcloned as a full IgG construct; also called anti-IL-21 receptor antibody 29G8; IL-21R mAb 29G8
B3: 34H7 (antibody, V domains shown)
VH: EVQLVQSGAELKKPGESLKISCKGSGYRFTSYWIGWVRQMPGKGLEWMGIIYPGDSDTRYSPSFQGQVTISADKSISTAYLQWHSLKVSDTAMYYCASPGYSTRWYHFDYWGQGTLVTVSS
VL: EIVMTQSPATLSVSPGERATLSCRASQSISSSLVWYQQKPGQAPRLLIYGASTRATGIPARFSGSGSGTEFSLTISSLQSEDFAVYYCQQYNNWPLLTFGPGTKVDIKR
notes: Fully human antibody from XenoMouse, subcloned as a full IgG construct; also called anti-IL-21 receptor antibody 34H7; IL-21R mAb 34H7

One assay concerns the target T1, recombinant cynomolgus IL-21 receptor (cynomolgus monkey, UniProt G7Q0S8 41-253).
T1 construct: construct not described; also called cyno IL-21R
The assay is described as follows: Biacore, recombinant cyno IL-21R. In general terms: SPR reads the build-up and loss of mass on a sensor chip optically.
One may read the Kd as the concentration at which binding is half-saturated. B1: the Kd turned out to be 0.078 nM.
Same read-out and setting: the result for B2 reads 0.166 nM.
On the same count and under the same terms, in the case of B3 it was 0.043 nM.

The target of the next assay is T2, recombinant human IL-21 receptor (human, UniProt Q9HBE5 20-232).
T2 construct: Used in Biacore and KinExA ('recombinant IL-21R', column 'hu'); also called recombinant IL-21R; hu IL-21R
T2 sequence (Q9HBE5 20-232 limits assumed): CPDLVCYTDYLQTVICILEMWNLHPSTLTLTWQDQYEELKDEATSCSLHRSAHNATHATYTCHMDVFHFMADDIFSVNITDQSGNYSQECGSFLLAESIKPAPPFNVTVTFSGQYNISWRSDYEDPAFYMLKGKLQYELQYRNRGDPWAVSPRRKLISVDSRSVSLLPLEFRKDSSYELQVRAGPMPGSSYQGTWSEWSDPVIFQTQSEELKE
The assay is described as follows: Biacore, recombinant human IL-21R.
As to B1, the Kd amounted to 0.016 nM.
As for B2, the Kd was determined as 0.078 nM.
B3: the Kd came out at 0.035 nM.

The target of another assay is T2, recombinant human IL-21 receptor. Briefly: KinExA, recombinant human IL-21R. For orientation: A kinetic exclusion assay measures how much of one partner remains free in solution.
Turning to B1, the Kd was found to be 0.015 nM.
As for B2, the Kd is 0.026 nM.
As to B3, the Kd was found to be 0.006 nM.

Another assay concerns the target cynomolgus IL-21 receptor on cells (cynomolgus monkey, UniProt G7Q0S8 41-559). The assay is described as follows: cell-based or functional assay.
B1: the “cyno pSTAT3 IC-50, B” value worked out at 9 pM and the “cyno pSTAT3 IC-50, T” value was 33 pM.
With B2, the “cyno pSTAT3 IC-50, B” value turned out to be 65 pM and the “cyno pSTAT3 IC-50, T” value is 286 pM.
For the molecule B3, the “cyno pSTAT3 IC-50, B” value turned out to be 4 pM and the “cyno pSTAT3 IC-50, T” value was determined as 13 pM.

In a further assay the target is T3, human IL-21 receptor on cells (human, UniProt Q9HBE5 20-538). Briefly: cell-based or functional assay.
T3 sequence (Q9HBE5 20-538 limits assumed): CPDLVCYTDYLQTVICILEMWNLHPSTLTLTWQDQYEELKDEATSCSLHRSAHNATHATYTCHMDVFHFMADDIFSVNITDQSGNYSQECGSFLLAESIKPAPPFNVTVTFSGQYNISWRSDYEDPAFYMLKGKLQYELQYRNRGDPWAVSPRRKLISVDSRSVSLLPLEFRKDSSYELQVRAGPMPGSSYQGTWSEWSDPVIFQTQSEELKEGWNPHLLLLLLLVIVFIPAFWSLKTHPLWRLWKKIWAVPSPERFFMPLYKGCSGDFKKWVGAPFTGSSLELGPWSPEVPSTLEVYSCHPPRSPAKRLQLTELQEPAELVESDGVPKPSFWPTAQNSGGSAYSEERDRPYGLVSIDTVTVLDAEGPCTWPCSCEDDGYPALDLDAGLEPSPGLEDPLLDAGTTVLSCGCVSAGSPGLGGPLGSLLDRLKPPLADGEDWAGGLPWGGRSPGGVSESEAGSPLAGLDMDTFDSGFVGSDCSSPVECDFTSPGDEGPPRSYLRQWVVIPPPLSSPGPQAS
B1: the “B cell (IgA) IC-50, exp1” value worked out at 58 pM; the “B cell (IgA) IC-50, exp2” value is 31 pM; the “B/T co-culture (IgA) IC-50, exp1” value amounted to 44 pM; the “B/T co-culture (IgA) IC-50, exp2” value amounted to 31 pM. Further, the “B/T co-culture (IgA) IC-50, exp3” value was found to be 24 pM; the “B/T co-culture (IgA) IC-50, exp4” value is 24 pM; the “B/T co-culture (IgA) IC-50, exp5” value was found to be 19 pM; the “CD8 T (IFNγ) IC-50, exp1” value turned out to be 203 pM. Moreover, the “CD8 T (IFNγ) IC-50, exp2” value came out at 35 pM; the “hu pSTAT3 IC-50, B” value was 36 pM; the “hu pSTAT3 IC-50, T” value was 10 pM.
For the molecule B2, the “B cell (IgA) IC-50, exp1” value stood at 22 pM; the “B cell (IgA) IC-50, exp2” value amounted to 47 pM; the “B/T co-culture (IgA) IC-50, exp1” value was 29 pM; the “B/T co-culture (IgA) IC-50, exp2” value worked out at 8 pM. The “B/T co-culture (IgA) IC-50, exp3” value came to 17 pM; the “B/T co-culture (IgA) IC-50, exp4” value is 17 pM; the “B/T co-culture (IgA) IC-50, exp5” value is 14 pM; the “CD8 T (IFNγ) IC-50, exp1” value amounted to 139 pM. In addition, the “CD8 T (IFNγ) IC-50, exp2” value was 48 pM; the “hu pSTAT3 IC-50, B” value turned out to be 137 pM; the “hu pSTAT3 IC-50, T” value is 33 pM.
Turning to B3, the “B cell (IgA) IC-50, exp1” value amounted to 18 pM; the “B cell (IgA) IC-50, exp2” value was 49 pM; the “B/T co-culture (IgA) IC-50, exp1” value is 16 pM; the “B/T co-culture (IgA) IC-50, exp2” value stood at 9 pM. The “B/T co-culture (IgA) IC-50, exp3” value stood at 11 pM; the “B/T co-culture (IgA) IC-50, exp4” value came out at 17 pM; the “B/T co-culture (IgA) IC-50, exp5” value turned out to be 10 pM; the “CD8 T (IFNγ) IC-50, exp1” value was 79 pM. Also, the “CD8 T (IFNγ) IC-50, exp2” value was determined as 27 pM; the “hu pSTAT3 IC-50, B” value was 14 pM; the “hu pSTAT3 IC-50, T” value was 8 pM.

The next assay has as its target T3, human IL-21 receptor on cells. The assay is described as follows: flow cytometry on Ramos cells, antibody titration, anti-huIgG detection. The protocol: Assay protocols ¹B/T co-culture. Mitomicin C-treated human T cells were cultured with B cells in anti-CD3 antibody pre-coated 96-well plates as described in Kuchen et al. (2007) J Immunol 179: 5886, incorporated herein by reference in its entirety. Supernatants were collected for IgA ELISA on day 6. ²B cell IgA production. Negatively selected human peripheral blood B cells were cultured in vitro with IL-21 and CD40L. On day 6, supernatants were collected for human IgG ELISA analysis. ³CD8 IFN-γ production. Purified human CD8 T cells were cultured with IL-21. IFN-γ was measured in the supernatant on day 3. ⁴Whole blood pSTAT3 stimulation. Human or cynomolgus monkey whole blood was pre-incubated with IL-21R mAbs titrations at 37° C. for 1 hr and stimulated with IL-21. Cells were fixed, permeabilized and stained for pSTAT3 and cell surface markers. ⁵Cell based KD measurement. Ramos cells (Human Burkitt's lymphoma) were incubated with a titration of IL-21R mAbs and bound antibody was detected with anti-huIgG by flow cytometry.
A general note: In flow cytometry, cells or beads pass a laser one at a time.
For the molecule B1, binding was put at a Kd of 0.033 nM.
Turning to B2, binding was characterised by a dissociation constant (Kd) of 0.016 nM.
Molecule B3 came in with a Kd of 0.015 nM.
